Experimental data: article PMC7329908

What was measured:
[1] = target: C. elegans Hsp90 (HSP-90) (C. elegans) (UniProt Q18688); test: AUC; sedimentation velocity with fluorescence detection; 600 nM ATTO 488-labelled GRLBDm, 3 μM unlabelled chaperones and cofactors, no nucleotide; 20 mM HEPES, 20 mM KCl, 5 mM MgCl2, 50 μM dexamethasone, pH 7.5; 42,000 rpm, 20 °C
[2] = target: C. elegans Hsp90 (HSP-90) (C. elegans) (UniProt Q18688); test: AUC; sedimentation velocity with fluorescence detection; 600 nM ATTO 488-labelled GRLBDm, 3 μM unlabelled chaperones and cofactors, 2 mM ATPγS; 20 mM HEPES, 20 mM KCl, 5 mM MgCl2, 50 μM dexamethasone, pH 7.5; 42,000 rpm, 20 °C

Question: For “ATTO 488-labelled GRLBDm, the ligand-binding domain of the human glucocorticoid receptor stabilized by mutagenesis (F602S/A605V/V702A/E705G/M752T) (domain or fragment)”, which fraction of GRLBDm bound [1] is on record?
Answer: The fraction of GRLBDm bound was 0.49.

Question: What about the fraction of GRLBDm bound [2] of the same substance?
Answer: The fraction of GRLBDm bound was 0.22.

Question: And the fraction of GRLBDm bound (with Cep23/DAF-41 added) [2]?
Answer: The fraction of GRLBDm bound (with Cep23/DAF-41 added) was 0.28.
